In the assay the target is caveolin-3 (Cav3) (mouse (endogenous in cardiomyocytes)) (UniProt P51637). Nature of the assay: co-IP; endogenous proteins in extracts of mouse cardiomyocytes / heart (WT; for actin-Cav3 also SM22α KO); IgG as negative control; Western blot. In general terms: Immunoblotting shows a protein as a band on a membrane.
Chain of UniProt P51637 (P51637 whole entry): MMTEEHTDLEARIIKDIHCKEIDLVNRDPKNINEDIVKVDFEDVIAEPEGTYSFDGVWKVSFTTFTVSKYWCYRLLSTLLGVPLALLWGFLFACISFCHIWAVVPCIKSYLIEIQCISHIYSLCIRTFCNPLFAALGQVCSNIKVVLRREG

“α-actin (from UniProt P68033 1-377) (natural protein)”: the reduction of the co-precipitate in SM22α KO against WT cardiomyocytes worked out at 34%.

The values are drawn from paper PMC9292107.
